# Assays:
# [1] = molecular target: annexin A2 (ANXA2), endogenous, in conditioned medium of SCp2 cells (mouse) (UniProt P07356); assay: anti-Flag IP from conditioned medium, LC-MS/MS spectra counts; selection criterion that ANXA2 passed
# [2] = molecular target: myristoylated alanine-rich C-kinase substrate (MARCKS), endogenous, in conditioned medium of SCp2 cells (mouse) (UniProt P26645); assay: anti-Flag IP from conditioned medium, LC-MS/MS spectra counts; selection criterion that MARCKS passed
# Chain of myristoylated alanine-rich C-kinase substrate (MARCKS), endogenous, in conditioned medium of SCp2 cells (mouse) (P26645 2-309 limits assumed): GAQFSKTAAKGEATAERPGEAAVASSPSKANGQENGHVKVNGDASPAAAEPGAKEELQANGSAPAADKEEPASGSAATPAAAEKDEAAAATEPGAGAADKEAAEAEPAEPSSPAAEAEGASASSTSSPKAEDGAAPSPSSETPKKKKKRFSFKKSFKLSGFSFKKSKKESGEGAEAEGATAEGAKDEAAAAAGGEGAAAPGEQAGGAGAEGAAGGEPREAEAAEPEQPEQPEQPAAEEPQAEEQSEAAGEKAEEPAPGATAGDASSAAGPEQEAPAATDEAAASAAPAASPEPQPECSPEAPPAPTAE
# Chain of annexin A2 (ANXA2), endogenous, in conditioned medium of SCp2 cells (mouse) (P07356 2-339 limits assumed): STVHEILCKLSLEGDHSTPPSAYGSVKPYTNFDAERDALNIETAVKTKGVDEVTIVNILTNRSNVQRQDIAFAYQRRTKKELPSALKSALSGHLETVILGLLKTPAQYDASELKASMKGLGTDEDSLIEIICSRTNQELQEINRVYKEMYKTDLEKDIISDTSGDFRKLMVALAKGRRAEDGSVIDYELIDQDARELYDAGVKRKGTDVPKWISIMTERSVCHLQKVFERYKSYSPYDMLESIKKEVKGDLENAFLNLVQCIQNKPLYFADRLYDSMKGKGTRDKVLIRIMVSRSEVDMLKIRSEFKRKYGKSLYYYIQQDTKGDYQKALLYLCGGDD
substance,measurement,setting,value
Flag-tagged full-length human MMP3 (FL) (from UniProt P08254 18-477) (enzyme),fold change of abundance (spectra counts) in FL compared with dPEX,[1],> 1.5 fold
same,fold change of abundance (spectra counts) in FL compared with dPEX,[2],> 1.5 fold

# Source: patent US20150079071A1, “NON-CATALYTIC DOMAIN TARGETS IN MATRIX METALLOPROTEASE PROTEINS FOR CANCER THERAPIES” (THE REGENTS OF THE UNIVERSITY OF CALIFORNIA, priority 2012, published 2015)
